The values that follow are results of earlier work, collected in patent publication US20120202218A1, “DETECTION METHOD AND DEVICE BASED ON NANOPARTICLE AGGREGATION” (MODPRO AB, priority 2008, published 2012).

The conditions of data set [1]: neutral pH.
The target of data set [2] is Fab57P. The following applies: binding to Fab57P, literature.

“H2N-NAADLEKAIEALEKHLEAKGPCDAAQLEKQLEQAFEAFERAG-COOH (H-NAADLEKAIEALEKHLEAKGPCDAAQLEKQLEQAFEAFERAG-OH) [JR2EC]”: the net charge in data set [1] was −5. With H-CRGTGSYNRSSFESSSGLV-NH2 [C-pTMVP], in data set [2], the equilibrium dissociation constant (Kd) was around 1 nM.
